Data on 18 sequences can be found in the supplement of paper PMC12764529.

The nature of data set [1]: folding stability dG unfold from trypsin proteolysis; higher = more stable. The method in brief:
(§1)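 How resistant each design was to proteolysis was captured as K50, inferred by Bayesian fitting of sequencing counts. Unfolding free energy was then derived relative to a sequence-predicted unfolded-state K50 and a shared folded-state K50, per protease or combined. Digestion used trypsin and chymotrypsin at 11 threefold-diluted concentrations plus a no-protease condition, on mini-proteins under 80 residues without cysteine in a PA-tagged cDNA display construct. Designs were kept only when AlphaFold2 dimer inter-PAE was above 15.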

Data set [2] in a line: folding stability dG unfold from chymotrypsin proteolysis; higher = more stable. The method in brief:
as §1

Data set [3] is described as follows: folding stability dG unfold (combined trypsin and chymotrypsin); higher = more stable. In a few lines: as §1

± gives the half width of the 95% confidence interval.

In the case of “SAGGSAGGSAGGDTVEIELRAFFPETGLIITPTITIDKNGKIISINPRIEPLPPPLEGILSAGGSAGGSAGG [r7_135_TrMRF]”, the “folding stability dG unfold” value is 0.341 ± 0.069 kcal/mol in data set [1], -0.253 ± 0.1 kcal/mol in data set [2] and 0.0659 ± 0.23 kcal/mol in data set [3].
For “SAGGSAGGSAGGDWITFTNPGGYKVTVEVDENGWMRVEVYPNGKPQEVPMPLEELKKNAPSAGGSAGGSAGG [r7_178_TrROS]” the same measures were -0.451 ± 0.18 kcal/mol, 0.868 ± 0.17 kcal/mol and 0.423 ± 0.19 kcal/mol.
The corresponding values for “SAGGSAGGSAGGEAKIKLEVEETPGGLVIRAEVEVDGKLYEVELRIKGDEIVEVKIKPLDSAGGSAGGSAGG [r7_187_TrROS_Hall]” are 2.13 ± 0.097 kcal/mol, 2.62 ± 0.2 kcal/mol and 2.5 ± 0.17 kcal/mol.
As for “SAGGSAGGSAGGEDPNLKSKTITKKVEKGKLDSSKNITDSSGNTSIITVENNTITITIVSSAGGSAGGSAGG [r7_97_JUSTAS]”, the “folding stability dG unfold” value in data set [1] is -0.215 ± 0.31 kcal/mol; in data set [2], 1.66 ± 0.049 kcal/mol; in data set [3] it was 1.03 ± 0.2 kcal/mol.
As to “SAGGSAGGSAGGEEKTEEEKRKEERLKPAPPLVLELDVEVDGKLYRFRLVNGKLEIEELPSAGGSAGGSAGG [r7_156_TrROS_Hall]”, the “folding stability dG unfold” value in data set [1] was found to be 1.71 ± 0.047 kcal/mol; in data set [2] it was 2.98 ± 0.038 kcal/mol; in data set [3] it was 2.56 ± 0.11 kcal/mol.
“SAGGSAGGSAGGEIKPGETITNLKVKIRNKKTGKTITVTLKPGETAEDLAKKLGVEIEPSAGGSAGGSAGGS [r10_202_TrROS_Hall]”: the “folding stability dG unfold” value in data set [1] is 0.622 ± 0.12 kcal/mol; in data set [2], 0.881 ± 0.097 kcal/mol; in data set [3] it was 0.87 ± 0.1 kcal/mol.
For “SAGGSAGGSAGGEIVIPVDGKLVVIKLKNGKKITVPVEDLKELLKKLGIKNAKIEVVPAKSAGGSAGGSAGG [r7_235_TrROS_Hall]” the same measures were 1.8 ± 0.088 kcal/mol, 2.82 ± 0.049 kcal/mol and 2.56 ± 0.17 kcal/mol.
Turning to “SAGGSAGGSAGGEKVVVPPPEVELRLERREDGYVRLYARNKDGEWEEVAVFKVSPEELELSAGGSAGGSAGG [r7_659_TrROS_Hall]”, the “folding stability dG unfold” value was determined as 3.09 ± 0.19 kcal/mol in data set [1], 3.77 ± 0.13 kcal/mol in data set [2] and 3.37 ± 0.32 kcal/mol in data set [3].
Consider “SAGGSAGGSAGGELELEVEVDGVLVRARVELDPETDELKIELEVRPLPPPEVVFLPEDRSAGGSAGGSAGGS [r10_582_TrROS_Hall]”, for which the figures for the “folding stability dG unfold” value in data set [1], in data set [2] and in data set [3] were 0.576 ± 0.072 kcal/mol, 0.504 ± 0.029 kcal/mol and 0.489 ± 0.1 kcal/mol, respectively.
The corresponding values for “SAGGSAGGSAGGEMRLRISWNHPNGQPQVIEFPVGDIKEFLKKLGIDNIPPDKLTNIEPYSAGGSAGGSAGG [r7_745_TrROS]” are 1.25 ± 0.039 kcal/mol, 1.37 ± 0.092 kcal/mol and 1.36 ± 0.094 kcal/mol.
The corresponding values for “SAGGSAGGSAGGENPVDFKARVELLSGVVELTYTNEDGEPTTTLEEVVALKIEIEPSNNSAGGSAGGSAGGS [r10_1212_TrMRF]” are 1.23 ± 0.046 kcal/mol, 1.81 ± 0.062 kcal/mol and 1.65 ± 0.073 kcal/mol.
Consider “SAGGSAGGSAGGEPEVEITIEVEERDGELVVRVTARFKDTDETITVEMTLEEVEALLKASAGGSAGGSAGGS [r10_1187_TrROS_Hall]”, for which the “folding stability dG unfold” value was determined as 2.54 ± 0.061 kcal/mol in data set [1], 2.17 ± 0.061 kcal/mol in data set [2] and 2.37 ± 0.077 kcal/mol in data set [3].
Turning to “SAGGSAGGSAGGERVLVMVFKFDPEDNDMKIKDVVTFPNPEEAREEAEKDGYMVMVIPLSAGGSAGGSAGGS [r10_657_TrROS]”, the “folding stability dG unfold” value in data set [1] was 0.995 ± 0.048 kcal/mol; in data set [2], 1.85 ± 0.12 kcal/mol; in data set [3] it was 1.47 ± 0.2 kcal/mol.
Regarding “SAGGSAGGSAGGETVTIVDKKTNKTITYNKETNEFTITTKNGKKKTIKVDSPEEALKALSAGGSAGGSAGGS [r10_849_TrROS_Hall]”, the “folding stability dG unfold” value was 0.964 ± 0.02 kcal/mol in data set [1], 0.731 ± 0.1 kcal/mol in data set [2] and 0.89 ± 0.12 kcal/mol in data set [3].
For “SAGGSAGGSAGGEVKILRVEEFEDGVVRVFVEGDDPVLVIELGPDGVILSIEEVDSSELSAGGSAGGSAGGS [r10_211_TrMRF]” the same measures were 1.04 ± 0.044 kcal/mol, 0.562 ± 0.034 kcal/mol and 0.781 ± 0.085 kcal/mol.
For “SAGGSAGGSAGGEVVVVPLPDGSYVVALPDGTVVVYNPETGRWEERRSEDVVIAPGRPDESAGGSAGGSAGG [r7_656_TrMRF]” the same measures were 2.09 ± 0.061 kcal/mol, 2.51 ± 0.031 kcal/mol and 2.4 ± 0.03 kcal/mol.
For “SAGGSAGGSAGGEYEIVKIEKVKNENGELYYKMIIKDKKTNKEIEIYMSLEELKKLKPKSAGGSAGGSAGGS [r10_326_TrROS_Hall]” the same measures were 2.05 ± 0.047 kcal/mol, 3.85 ± 0.16 kcal/mol and 3.24 ± 0.18 kcal/mol.
With “SAGGSAGGSAGGFIARIEYPDGNTRTINPGMSLDELRNLPPDQIRRVEVEPVPPVPDDEKSAGGSAGGSAGG [r7_190_TrROS]”, the “folding stability dG unfold” value in data set [1] was -0.225 ± 0.12 kcal/mol; in data set [2], 0.723 ± 0.023 kcal/mol; in data set [3], 0.499 ± 0.079 kcal/mol.
